Source: patent US20150099790A1

Columns and labels:
Assay in all cases: TAP purification of tagged bait from yeast, trypsin digestion, mass spectrometric identification of co-purified proteins
[1] = target: Cor1 (Saccharomyces cerevisiae) (UniProt P07256)
[2] = target: Gut2 (Saccharomyces cerevisiae) (UniProt P32191)
[3] = target: Md12 (Saccharomyces cerevisiae) (UniProt P33311)
[4] = target: Mpc3 (S. cerevisiae, encoded by YGR243W) (S. cerevisiae) (UniProt P53311)
[5] = target: Nde1 (Saccharomyces cerevisiae) (UniProt P40215)
Nde1 (Saccharomyces cerevisiae), sequence (P40215 42-560 limits assumed): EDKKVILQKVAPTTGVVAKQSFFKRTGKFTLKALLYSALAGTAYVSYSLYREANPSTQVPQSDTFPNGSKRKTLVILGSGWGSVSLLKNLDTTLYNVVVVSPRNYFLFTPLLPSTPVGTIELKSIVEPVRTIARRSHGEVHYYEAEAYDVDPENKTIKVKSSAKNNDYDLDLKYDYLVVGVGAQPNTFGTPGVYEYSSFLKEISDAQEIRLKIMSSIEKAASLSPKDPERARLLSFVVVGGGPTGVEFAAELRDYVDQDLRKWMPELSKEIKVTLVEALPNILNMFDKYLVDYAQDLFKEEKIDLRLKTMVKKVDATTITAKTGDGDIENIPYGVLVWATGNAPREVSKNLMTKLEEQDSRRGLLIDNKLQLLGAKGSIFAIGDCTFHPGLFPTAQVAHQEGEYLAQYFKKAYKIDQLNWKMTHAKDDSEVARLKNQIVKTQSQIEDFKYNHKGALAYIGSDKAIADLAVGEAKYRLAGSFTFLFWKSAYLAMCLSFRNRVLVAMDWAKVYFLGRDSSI

[6] = target: Qcr2 (Saccharomyces cerevisiae) (UniProt P07257)
Qcr2 (Saccharomyces cerevisiae), sequence (P07257 17-368 limits assumed): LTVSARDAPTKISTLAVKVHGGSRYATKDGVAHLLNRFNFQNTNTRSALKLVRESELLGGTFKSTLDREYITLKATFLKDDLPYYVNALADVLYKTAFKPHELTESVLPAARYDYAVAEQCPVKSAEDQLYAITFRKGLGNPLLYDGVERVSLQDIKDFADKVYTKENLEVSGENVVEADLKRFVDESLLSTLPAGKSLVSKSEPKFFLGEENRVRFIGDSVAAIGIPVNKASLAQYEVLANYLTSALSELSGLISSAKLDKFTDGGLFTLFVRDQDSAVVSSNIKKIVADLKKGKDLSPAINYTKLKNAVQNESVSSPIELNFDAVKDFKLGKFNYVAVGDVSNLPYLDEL

[7] = target: Fmp24 (Saccharomyces cerevisiae) (UniProt Q04472)
Fmp24 (Saccharomyces cerevisiae), sequence (Q04472 whole entry): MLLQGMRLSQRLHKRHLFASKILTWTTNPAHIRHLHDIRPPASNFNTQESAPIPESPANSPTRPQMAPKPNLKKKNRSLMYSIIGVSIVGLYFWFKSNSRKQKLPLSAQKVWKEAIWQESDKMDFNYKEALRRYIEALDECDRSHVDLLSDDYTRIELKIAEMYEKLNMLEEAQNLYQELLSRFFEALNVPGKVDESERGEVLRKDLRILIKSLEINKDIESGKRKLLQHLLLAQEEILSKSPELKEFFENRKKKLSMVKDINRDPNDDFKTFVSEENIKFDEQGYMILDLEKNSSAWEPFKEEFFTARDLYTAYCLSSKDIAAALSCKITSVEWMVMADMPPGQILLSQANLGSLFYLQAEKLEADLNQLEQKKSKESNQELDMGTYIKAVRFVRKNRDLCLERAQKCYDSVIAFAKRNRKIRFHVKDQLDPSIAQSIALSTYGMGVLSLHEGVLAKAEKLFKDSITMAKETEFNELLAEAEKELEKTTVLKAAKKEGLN

[8] = target: Mpm1 (Saccharomyces cerevisiae) (UniProt P40364)
Mpm1 (Saccharomyces cerevisiae), sequence (P40364 whole entry): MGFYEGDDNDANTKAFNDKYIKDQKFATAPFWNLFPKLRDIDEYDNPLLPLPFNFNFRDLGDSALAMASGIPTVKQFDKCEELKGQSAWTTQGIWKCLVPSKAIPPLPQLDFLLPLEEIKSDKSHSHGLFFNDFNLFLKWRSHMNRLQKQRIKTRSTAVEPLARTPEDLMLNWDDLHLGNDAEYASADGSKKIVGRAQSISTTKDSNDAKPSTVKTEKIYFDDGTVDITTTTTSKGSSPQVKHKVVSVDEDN

Gut2 (Saccharomyces cerevisiae), sequence (P32191 whole entry): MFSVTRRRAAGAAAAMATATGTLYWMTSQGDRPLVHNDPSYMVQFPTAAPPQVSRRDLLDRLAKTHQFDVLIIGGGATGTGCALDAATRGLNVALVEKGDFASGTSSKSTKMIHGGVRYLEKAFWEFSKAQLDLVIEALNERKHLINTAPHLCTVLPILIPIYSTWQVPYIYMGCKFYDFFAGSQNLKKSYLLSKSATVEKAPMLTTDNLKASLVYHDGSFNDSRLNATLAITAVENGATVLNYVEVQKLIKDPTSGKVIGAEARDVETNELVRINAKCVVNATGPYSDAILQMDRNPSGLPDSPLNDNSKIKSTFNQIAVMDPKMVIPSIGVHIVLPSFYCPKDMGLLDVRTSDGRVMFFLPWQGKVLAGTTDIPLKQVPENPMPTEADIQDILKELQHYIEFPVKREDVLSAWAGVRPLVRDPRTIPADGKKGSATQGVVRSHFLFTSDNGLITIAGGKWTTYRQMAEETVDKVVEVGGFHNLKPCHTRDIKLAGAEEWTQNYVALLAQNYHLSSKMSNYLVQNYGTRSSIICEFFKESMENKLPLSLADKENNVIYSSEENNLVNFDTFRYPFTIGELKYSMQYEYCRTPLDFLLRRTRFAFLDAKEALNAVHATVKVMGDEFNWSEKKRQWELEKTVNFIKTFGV
Md12 (Saccharomyces cerevisiae), sequence (P33311 91-773 limits assumed): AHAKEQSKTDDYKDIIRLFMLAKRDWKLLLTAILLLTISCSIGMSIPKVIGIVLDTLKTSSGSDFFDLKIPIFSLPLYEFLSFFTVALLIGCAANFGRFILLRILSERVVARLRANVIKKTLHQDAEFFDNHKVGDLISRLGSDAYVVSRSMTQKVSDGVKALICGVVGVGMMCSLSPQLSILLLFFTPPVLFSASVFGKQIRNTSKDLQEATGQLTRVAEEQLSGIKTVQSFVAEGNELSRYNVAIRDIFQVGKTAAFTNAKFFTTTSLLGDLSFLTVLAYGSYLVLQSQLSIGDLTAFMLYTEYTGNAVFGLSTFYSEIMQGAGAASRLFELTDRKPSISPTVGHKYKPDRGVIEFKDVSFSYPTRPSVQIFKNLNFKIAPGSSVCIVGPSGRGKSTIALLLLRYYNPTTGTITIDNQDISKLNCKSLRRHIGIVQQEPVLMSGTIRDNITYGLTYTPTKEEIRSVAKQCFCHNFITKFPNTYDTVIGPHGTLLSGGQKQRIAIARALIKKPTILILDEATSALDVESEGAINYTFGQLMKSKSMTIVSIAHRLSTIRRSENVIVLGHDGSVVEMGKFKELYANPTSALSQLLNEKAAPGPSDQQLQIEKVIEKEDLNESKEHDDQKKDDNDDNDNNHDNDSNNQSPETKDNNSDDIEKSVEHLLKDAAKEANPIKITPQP
Cor1 (Saccharomyces cerevisiae), sequence (P07256 27-457 limits assumed): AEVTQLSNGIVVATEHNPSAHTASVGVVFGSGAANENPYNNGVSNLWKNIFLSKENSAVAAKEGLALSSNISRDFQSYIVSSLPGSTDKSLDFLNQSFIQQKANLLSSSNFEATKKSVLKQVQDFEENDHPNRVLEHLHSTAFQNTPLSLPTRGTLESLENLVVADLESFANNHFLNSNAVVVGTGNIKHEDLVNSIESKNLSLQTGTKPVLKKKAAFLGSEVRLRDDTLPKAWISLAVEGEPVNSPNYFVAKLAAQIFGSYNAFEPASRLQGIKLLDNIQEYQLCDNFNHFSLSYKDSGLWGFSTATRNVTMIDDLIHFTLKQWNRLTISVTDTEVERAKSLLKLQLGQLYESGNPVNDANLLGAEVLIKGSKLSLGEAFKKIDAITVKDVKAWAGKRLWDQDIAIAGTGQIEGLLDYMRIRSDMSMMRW

Q: How did the PSMs [1] turn out when “Mpc2, tagged variant used for TAP purification (from UniProt P38857 1-129)” was run?
A: The PSMs was 5 PSMs.

Q: And the PSMs [2]?
A: Its PSMs is 4 PSMs.

Q: What about the PSMs [3] of the same substance?
A: The PSMs was 28 PSMs.

Q: And the PSMs [4]?
A: Its PSMs is 5 PSMs.

Q: What about the PSMs [5] of the same substance?
A: Its PSMs is 6 PSMs.

Q: What about the PSMs [6] of the same substance?
A: The PSMs was 3 PSMs.

Q: For “Mpc1-His6/HA2 (from UniProt P53157 1-130)”, which PSMs [7] is on record?
A: Its PSMs is 4 PSMs.

Q: What about the PSMs [2] of the same substance?
A: The PSMs was 7 PSMs.

Q: What about the PSMs [4] of the same substance?
A: The PSMs was 5 PSMs.

Q: What about the PSMs [8] of the same substance?
A: The PSMs was 7 PSMs.
